Test results published in a protein production outcome set (Wang et al. 2014).

Assay: label from the status in PepcDB records

Sequence	protein production
MLKTLLTSDVIQVVSQAKDWRDAIAISCQPLIDNGAVEARYVEAIYRSHEAIGPYYVVGPGIAMPHARPEDGVNRLSLALTVITEGVTFNAEGNDPVKLLIVLAATDSNSHIEAISQLAQLFDTASDVQALLNAKTPQDILSVIARY	not failed
MSEDELYELLKTKYGFDEFRPGQLAVIQKLLAGQDVLAVLPTGTGKSLIYQLVGTALPGLVVVVSPLISLMQDQVARLNYQGEKQVAALTSQLDYGARQYLLNHLGQLKFLFISPEMLGQDIIQTALMQVQLALLVIDEAHCISTWGPDFRPDYRRLGQIRQRLQAPTTLMLTATATQRVRQDILTQLTVPDAQQILYSVNRPNIYLAVEQVNDEASKRATLQHLVTSARGPVIVYFTSKRQTDLIAEWLRTTTTLRVAAYHAGLATDDRFKIQQQFMAGQLDVICATSAFGMGINKADIRLVIHYHLPTTLADYVQEIGRAGRDGQQAMAIMLYAPGDENLVRNLNELTAATPNEIQQDYSRYQAQQPPTDDRSKVLQSYWLQGTPPTTVATIFADRQVAKERELRTLMSYVQTTTCHRTVMLTYFGEPAVTHTDQCCQLAAEPLPLAALGLMATHDEPTATIMSWDQHLAQLFLPNS	failed
MKGNALCTGEPVMTIETRGGGSEDIAVLPLDPTGNITRLFIRERCNDSSDPECKTGQWRLGSVDISRENTPASTRYAWRPGNNASEDDFEPLGMSLVPGNTPGEGTLFVIDIARPQSVRIWQLDISGGEITKATLATPADTQTGARLTAANSLQAVRNDDSRSFHLTITRFDEYGLLPFRPTPWPALVRINNGVIQPPPAQDFRNANGIIRPCAGCDLVIASYWERRLRFVSKENGEIGEYASAELPIRPDNLRLDGERILIAGQRRVDLTALNLLVSPHIPSPSGVYAIDTRSLGPDTVPTLLWEGGWKHGHSVATAVALPGNRLAIGQINTPGILIADCSPLEHHHHHH	failed
LGNAMNIPAPIRIEAFDNSNIMGTNPVSAMVVFIDGRPAKNEYRKYKIKTVQGPDDYASMREVIYRRYSRVLKEGLPFPDLILIDGGKGQVDVAKDVLANQLGVDIPVAGLAKNDKHKTSELLFGPNLEVVPLERNSQEFFLLQRIQDEVHRFAI	not failed
MRPADRCRSPTGRPATGRHRPDIFTNTVEWDAFEAAPLYGDTTSSFVCQSRMTGEYFPKMGGHAMKNRLACTAVIAAIFCTTSASAQKLPEIWEVTKLVPGSAFHGVHGLGIDKAGHLFAGSVAGAMLYEVDIASGTAKVAIPAPIGMADDIAFAPDGTMAWTGFLAGDLYSRKGDGPIKKLASGLPGINSLAFRKDGRLYATTVFLGDTLYEIDVEGVKPPRQIMEKMGGLNGFEFGPDDKLYGPLWFKGQVAKVDVDKAELTVVADGFKVPAAVNFDSKGNLWVVDTALGQLVRVDPKSGAKTMVAQLKPSLDNLAIDEKDRIYVSNMADNGIQEVDPASGQAKQIIIGKLALPGGIGVTSENGKDTIHVADVFAYRTVDGTTGEVTEKARMHAAGVTLEYPMSATAKGNDVILSSWFTGTVQVIDNKTGATRDMLHDFKAPHDAIVLEDGSILVAELGTKSLVRVSGEHGKDRTTLIGDLEGPVGLVAGSRGEVYVTEAFAGVVSKIEQNGEKTVLVKELKMPEGLARTSDGKLIVAEVGARRLIEITPEDGKITEIAADLPIGLAGAPGGLPTHIPTGVAIGATGVIYFSSDIENAIYKAVKK	failed
MTVIERFKSNLKGKQNLINFGFILIGLFGCYLLIAWASYSPLDNAWSTASSVTHDTVLNKTGKLGAWLIDLLYAFLGNVAFVVPFVLFSFAIYALIFRIAEQWKWRNLLLQIGSFILLLIGLSGIASVLLPNSAYYLAGGFVGGMLQSLLNGIIGQVGLLLLSTVLMSIGFYFCSGQLLFSLGIQFYQWLFIKKPQSNTILEAANPHLNAQNNETTKSIVANPSENAHVDQLVTHENATEQLTDVSAFTRPTIHGLKSSSTLNTDKTKYNQVNAQPLTDPMMFKIEKKVILPKINMQHPENELTNLSMEQTNSIDNLEIRLPKVHLNTAVTNPEIKTVEHHAQNRPLEMPTQIQPVFDQPITPTISLNVEDQPLDIESNEAQLAEEFAAAEQMRLANMEQRAKAEGLEETFNQIITSPTLTVSINESSEQPTEKDLNPTHHDNGANYPKGYGKTLLHPLLQRNNVVEKPTTPLPTLELLAKNPVQTQQITEQEIFDTSHRLENALANYNVKATVEDVLVGPVVTRYEIKPAAGIKANKVTALANDLARELMFKAIRITEVVPGKPYMGIETPNTHRQTVWLRDVLDSEAFRHTQATLPMALGKDISGQPIVVDMAKMPHLLVAGQTGGGKSVGINTMILSLLFKLTPEQVRFIMIDPKVVELSVYNDIPHLLTPVVTDMKKAANALRWAVGEMERRYLLISHLQVRNIEGYNDKIDQASAMNFPIPDPTWRPADSIGQLPPPLTKLSYIVLIVDEFADLIMSAGKEVEEYIMRIAQKARAVGIHLILATQRPSTDVITGVIKANIPSRIAFTVASQIDSRTILDAGGAEALLGRGDMLYSASGSPEIMRIHGAFMSDEEVQRIADNWRARGKPQYLDSVVASHEDENDSRTNTITELDPLFDEIVAYVIESGVTSISGIQRRFSLGFNRAGRIIDQMEAQAIISEPGKGGKREVLAR	failed
MRERLFANVRLRLSGGRQAAYISRAMSAAPDLRDPPPAHVRRLDPILVDRIAAGEVVERPASAVKELVENAIDAGARSIEVAIEGGGRRLIRVVDDGIGMGPDDLALAVERHATSKLPDGDLTRIGSLGFRGEALPSIGAVSRLTITSRTADGEGVSLTLDSGVKGPVRPAPASRGTRIEVTELFAATPARLKFLKTDRAETAAVSEILRRLAVAQPRIRFTLRTESGSPTVFPAESEPGPAALLRRLGAVLGPDFPGNAVPVDMAREGFALAGHVGLPTFHRGAASHIHFVVNGRPVRDRLLLGAVRGAYADTMSSDRHPVLALHLTCDPALVDVNVHPAKTELRFREPGLVRALIVSAIHEALRRAGARSSSTGTQAVLDALRAGAGMGSAPPMAAGVGRFAVHSGASTASALNPRPASRLFSGPSVAAPAGYRPAPRPAFTEDHPGFAETPQALFSADLAPPGADLRPEPEAVSEAETHPEAHPLGAARAQIHETYIVAQTRDGIVLVDQHAAHERLVYERLKSERAGGGVLAQGLLIPDVVEMAPEEADRLVEAAPELERLGLTLEAFGPGAVLVRSVPSALAGGSVKGLVLDVLDALAASGVEEGGPAGAGDPDPVSRRLDAILSRMSCHGSIRAGRRLKPEEMNALLREMEATPLSGSCNHGRPTFVSLGLADIERLFGRR	failed
SDSLETTQQDYPDCFFQHVKVNVKNPYDLTRQVCSSMDQWLTERLDSEPLSLAILVDSATSILYLSNQSNSFSLLFHYLRVMGRKLSPTLYCVCQLIHFDMGYGDELLKEAKFYDSLILQLDALPLGVPSEQDGRLSIEERDQAISTVLFKILENQIKFFTI	failed
MVTKILKAPDGSPSDVERIKKESDYLRGTLKEVMLDRISAGIPDDDNRLMKHHGSYLQDDRDLRNERQKQKLEPAYQFMLRVRMPGGVSTPEQWLVMDDLSQKYGNGTLKLTTRETFQMHGILKWNMKKTIQTIHSALLDTIAACGDVNRNVMCASNPYQSEIHSEVYEWSKKLSDDLLPRTRAYHEIWLDEERVAGTPEEEVEPMYGPLYLPRKFKIGIAVPPSNDIDVFSQDLGFIAIVEDGKLIGFNVAIGGGMGMTHGDTATYPQLAKVIGFCRPEQMYDVAEKTITIQRDYGNRSVRKNARFKYTVDRLGLENVKEELENRLGWSLEEAKPYHFDHNGDRYGWVEGIEDKWHFTLFVEGGRITDYDDYKLMTGLREIAKVHTGEFRLTANQNLMIANVSSDKKEEISALIEQYGLTDGKHYSALRRSSMACVALPTCGLAMAEAERYLPTLLDKIEEIIDENGLRDQEITIRMTGCPNGCARHALGEIGFIGKAPGKYNMYLGAAFDGSRLSKMYRENIGEADILSELRILLSRYAKEREEGEHFGDFVIRAGIIKATTDGTNFHD	failed
MHLRLRTKNGLITITVSQQCTIRELSEEIERKTGIEVAKQKILYGFPQRELRADADKPVESVLQSGDSLTVDKLSAETEQERTVESSPASTENAYVRRKVPDDNSCLFHAICYVFRSGSVAQLRHIISETVRLNPDLYTEAFLGKSNHEYSRWILLPETWGGAIELSILSKYFQTEISVFDIQTLRLDRYGEAENYEERVFLLYDGIHYDPIARAFLGASREYDVTVFKIWDNEALVGAKSVAEEANKNRQYTDLASFTLMCRNCGAKLKGETSAVEHAKQTGHTNFTEA	failed
MEQIITDFISKWGYTAIFILILLENVLPVVPSEIILTFAGLLSVKSHLSIWTLLIIATIASFIGLLILYYICRLISEEKLYRFVDRHGKWMKLKSKDLKRANDWFKKYGAWAVFLCRFVPVLRVLITIPAGINRMNVIQFTTLSLIGTTIWNFALILLGRLLSDSFDALMNGIHTYSRIMYVIIIIAVIYFVIRYLMKRRRSVK	failed
MSLMDYFAIHVVPKLYRGKGAFHPAETGKLTETVSCVREYDVNIFFIRKGNTLIAIDSGYKNHHALLPGCKKIEIDPKAVQALFLTHADPDHAGGLDIRCENCFINAEIYLGEIEENYLTNTIYRKKIGPFGLKNSVKIKDNYHLLKDGQSVSVGDLTIQPFLVPGHTLGHLMYLIDNELLFTGDSIALNQEGGWCFFDLFNYNSEMNIKSLKTLKEKLDLNRIKYVFTSHNGFTDKAKEAFAHVDVIPKWNEKGFIFDKTAPYDCFAD	failed
MSSPFPADTPSSNRPSNSSPPPSSIGAGFGSSSGLDSQIGSRLHFPSSSQPHVSNSQTGPFVNDSTQFSSQRLQTDGSATNDMEGNEPARSFKSRALNHVKKVDDVTGEKVREAFEQFLEDFSVQSTDTGEVEKVYRAQIEFMKIYDLNTIYIDYQHLSMRENGALAMAISEQYYRFLPFLQKGLRRVVRKYAPELLNTSDSLKRSEGDEGQADEDEQQDDDMNGSSLPRDSGSSAAPGNGTSAMATRSITTSTSPEQTERVFQISFFNLPTVHRIRDIRSEKIGSLLSISGTVTRTSEVRPELYKASFTCDMCRAIVDNVEQSFKYTEPTFCPNPSCENRAFWTLNVTRSRFLDWQKVRIQENANEIPTGSMPRTLDVILRGDSVERAKPGDRCKFTGVEIVVPDVTQLGLPGVKPSSTLDTRGISKTTEGLNSGVTGLRSLGVRDLTYKISFLACHVISIGSNIGASSPDANSNNRETELQMAANLQANNVYQDNERDQEVFLNSLSSDEINELKEMVKDEHIYDKLVRSIAPAVFGHEAVKKGILLQMLGGVHKSTVEGIKLRGDINICVVGDPSTSKSQFLKYVVGFAPRSVYTSGKASSAAGLTAAVVRDEEGGDYTIEAGALMLADNGICCIDEFDKMDISDQVAIHEAMEQQTISIAKAGIHATLNARTSILAAANPVGGRYNRKLSLRGNLNMTAPIMSRFDLFFVILDDCNEKIDTELASHIVDLHMKRDEAIEPPFSAEQLRRYIKYARTFKPILTKEARSYLVEKYKELRKDDAQGFSRSSYRITVRQLESMIRLSEAIARANCVDEITPSFIAEAYDLLRQSIIRVDVDDVEMDEEFDNIESQSHAASGNNDDNDDGTGSGVITSEPPADIEEGQSEATARPGTSEKKKTTVTYDKYVSMMNMIVRKIAEVDREGAEELTAVDIVDWYLLQKENDLGSLAEYWEERRLAFKVIKRLVKDRILMEIHGTRHNLRDLENEENENNKTVYVIHPNCEVLDQLEPQDSS	failed
AIACHTQVGGSMQVPEPRRPFTCSSENNVTNSFFEEAYSASFRSKLYNMVEEIEQERAKYCNSANLSYMDAFGVEKESIEEDYNKEEDRDSLCSVDIADNSETSNRSSEDLLCDNCSKSLMFLNNVFKWNDLLFCNLDCYTSAILKNQKGADVKHRVACSLSPTWHKDCVHSVQD	not failed
MMYPYVRLFMEMRRARRLDPLPVLGTHRSSHRCLPWDLAPWRELNNGRTLTLFDLGRAPLLVRTGMQRICSEKGWGMTVAGSSVRYRRRVVLMERLEMVSRCLGWDGRFFYMEQSLWRKGDCTSHMLLRAATTTGSGIVPPAEVAAALGAGESPPLPDWAQAWIEADALRPWPPAALEHHHHHH	failed
MVRDNGPGERLSIPPLSGLRKFRRTLSQKYDNHYCYLWMVSSALEYVRKFGIEKEPSRPFHAYAICPKDVPHRSPSIELSYISEVVWLNRIEDDLCYMNIRSLPVSPFSFSNIEKIGFQR	not failed
